Data taken from IntAct's records for PubMed 8670882.

Experiments:
ste20_yeast STE20 = target: T1, ste20_yeast STE20 (UniProt Q03497)
T1 sequence: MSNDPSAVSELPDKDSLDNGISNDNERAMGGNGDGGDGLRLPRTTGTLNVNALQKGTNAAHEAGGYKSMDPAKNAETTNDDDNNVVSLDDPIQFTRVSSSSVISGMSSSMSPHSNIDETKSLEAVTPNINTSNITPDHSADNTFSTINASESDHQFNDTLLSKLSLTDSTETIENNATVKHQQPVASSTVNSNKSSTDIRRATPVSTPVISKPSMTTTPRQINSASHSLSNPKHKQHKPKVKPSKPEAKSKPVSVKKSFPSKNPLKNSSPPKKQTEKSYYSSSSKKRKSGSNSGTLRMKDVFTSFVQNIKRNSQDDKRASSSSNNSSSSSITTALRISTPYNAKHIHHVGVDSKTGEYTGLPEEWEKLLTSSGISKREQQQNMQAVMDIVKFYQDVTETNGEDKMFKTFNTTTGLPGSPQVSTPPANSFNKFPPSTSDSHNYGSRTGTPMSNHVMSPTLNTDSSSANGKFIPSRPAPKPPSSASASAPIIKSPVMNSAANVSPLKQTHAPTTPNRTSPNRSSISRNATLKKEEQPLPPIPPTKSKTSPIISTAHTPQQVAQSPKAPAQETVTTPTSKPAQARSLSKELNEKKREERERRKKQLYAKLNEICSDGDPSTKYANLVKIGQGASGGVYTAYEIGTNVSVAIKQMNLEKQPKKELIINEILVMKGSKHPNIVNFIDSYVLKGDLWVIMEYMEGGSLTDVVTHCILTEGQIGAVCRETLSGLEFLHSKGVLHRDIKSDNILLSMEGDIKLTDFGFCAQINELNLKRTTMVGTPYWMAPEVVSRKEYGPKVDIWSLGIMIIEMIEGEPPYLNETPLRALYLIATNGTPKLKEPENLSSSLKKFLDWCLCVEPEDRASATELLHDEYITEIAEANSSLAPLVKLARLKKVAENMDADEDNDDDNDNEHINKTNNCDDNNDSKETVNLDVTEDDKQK

arfp2_human ARFIP2 = target: T2, arfp2_human ARFIP2 (UniProt P53365)
T2 sequence: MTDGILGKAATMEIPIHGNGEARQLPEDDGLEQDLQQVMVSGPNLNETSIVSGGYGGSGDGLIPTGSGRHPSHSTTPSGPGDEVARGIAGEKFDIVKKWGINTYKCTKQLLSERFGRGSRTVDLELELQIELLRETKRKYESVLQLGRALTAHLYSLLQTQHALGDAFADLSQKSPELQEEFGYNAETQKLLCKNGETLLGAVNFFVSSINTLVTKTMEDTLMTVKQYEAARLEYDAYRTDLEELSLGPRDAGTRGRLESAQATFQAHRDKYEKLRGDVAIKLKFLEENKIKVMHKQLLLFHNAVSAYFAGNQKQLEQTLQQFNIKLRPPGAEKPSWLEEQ

| Substance | effect of a mutation on the interaction (ste20_yeast STE20) | effect of a mutation on the interaction (arfp2_human ARFIP2) |
| --- | --- | --- |
| Ras-related C3 botulinum toxin substrate 1 (Homo sapiens) (from UniProt P63000) G12V | increasing interaction |  |
| Ras-related C3 botulinum toxin substrate 1 (Homo sapiens) (from UniProt P63000) T35A |  | decreasing interaction |
